# Molecular target: human type IIA sPLA2 (human) (UniProt P14555)
# Experiment: cell-based or functional assay
# Chain of human type IIA sPLA2 (human) (P14555 21-144): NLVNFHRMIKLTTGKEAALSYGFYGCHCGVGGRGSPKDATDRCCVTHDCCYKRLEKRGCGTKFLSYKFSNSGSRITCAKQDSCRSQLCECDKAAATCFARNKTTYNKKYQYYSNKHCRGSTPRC
Substance,Mean % Inhibition at fixed peptide concentration [5 µM] [%],IC50 of sPLA2 enzyme inhibition (3H-labelled E. coli membranes as substrate) [µM]
"D60, 65E-PIP (59-67) (peptide)",–,4.2
PIP (56-67) (peptide),34.2,–
PIP (60-67) (peptide),–,5.75

# Continued, in another order:
Mean % Inhibition at fixed peptide concentration [5 µM] [%],Substance,IC50 of sPLA2 enzyme inhibition (3H-labelled E. coli membranes as substrate) [µM]
14.2,PIP (57-67) (peptide),–
59.5,PIP (58-67) (peptide),3.67
56.4,PIP (59-67) (peptide),3.8

# Reference: patent US20050069530A1
